Assay results: article PMC10238393 (2023)

T1: LPHN2 Lec (Homo sapiens)
T1 chain: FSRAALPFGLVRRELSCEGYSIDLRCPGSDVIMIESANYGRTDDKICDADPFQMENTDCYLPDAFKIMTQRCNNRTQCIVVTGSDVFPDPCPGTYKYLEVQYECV

T2: LPHN2 olfactomedin-like (Olf) domain (human, UniProt O95490 135-394)
T2 chain: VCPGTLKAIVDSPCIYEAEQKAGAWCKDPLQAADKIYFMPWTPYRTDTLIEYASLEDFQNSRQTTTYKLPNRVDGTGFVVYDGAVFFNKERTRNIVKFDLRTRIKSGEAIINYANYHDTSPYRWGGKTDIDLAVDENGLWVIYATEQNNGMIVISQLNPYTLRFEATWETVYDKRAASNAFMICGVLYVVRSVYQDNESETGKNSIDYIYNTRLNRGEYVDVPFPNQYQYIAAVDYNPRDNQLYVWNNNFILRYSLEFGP

B1: Leucine-rich α-2-glycoprotein 1 (LRG1), recombinant human, glycosylated (natural protein)
chain: VTLSPKDCQVFRSDHGSSISCQPPAEIPGYLPADTVHLAVEFFNLTHLPANLLQGASKLQELHLSSNGLESLSPEFLRPVPQLRVLDLTRNALTGLPPGLFQASATLDTLVLKENQLEVLEVSWLHGLKALGHLDLSGNRLRKLPPGLLANFTLLRTLDLGENQLETLPPDLLRGPLQLERLHLEGNKLQVLGKDLLLPQPDLRYLFLNGNKLARVAAGAFQGLRQLDMLDLSNNSLASVPEGLWASLGQPNWDMRDGFDISGNPWICDQNLSDLYRWLQAQKDKMFSQNDTRCAGPEAVKGQTLLAVAKSQ
modifications: N-linked glycans (N-acetylglucosamine seen in the crystal) at N79, N186, N269 and N325; Alexa 647-conjugated in the FACS assay
B2: Deglycosylated LRG1 (LRG1 treated with PNGase F) (natural protein)
chain: B1 chain
modifications: N-glycans removed by PNGase F; Alexa 647-conjugated in the FACS assay
B3: leucine-rich α-2-glycoprotein 1 (LRG1): N79D (protein)
parent chain: MSSWSRQRPKSPGGIQPHVSRTLFLLLLLAASAWGVTLSPKDCQVFRSDHGSSISCQPPAEIPGYLPADTVHLAVEFFNLTHLPANLLQGASKLQELHLSSNGLESLSPEFLRPVPQLRVLDLTRNALTGLPPGLFQASATLDTLVLKENQLEVLEVSWLHGLKALGHLDLSGNRLRKLPPGLLANFTLLRTLDLGENQLETLPPDLLRGPLQLERLHLEGNKLQVLGKDLLLPQPDLRYLFLNGNKLARVAAGAFQGLRQLDMLDLSNNSLASVPEGLWASLGQPNWDMRDGFDISGNPWICDQNLSDLYRWLQAQKDKMFSQNDTRCAGPEAVKGQTLLAVAKSQ
B4: leucine-rich α-2-glycoprotein 1 (LRG1): N186D (protein)
parent chain: B3 parent chain
B5: leucine-rich α-2-glycoprotein 1 (LRG1): N269D (protein)
parent chain: B3 parent chain
B6: leucine-rich α-2-glycoprotein 1 (LRG1): N325D (protein)
parent chain: B3 parent chain

What was measured:
[1] = target: LPHN2 Lec/Olf domain (human); test: ELISA; solid-phase binding assay: LPHN2 extracellular domain variants (100 nM) coated on MaxiSorp 96-well plates, 1 h room temperature, blocked with 1% BSA; 0.001-10 μM LRG1 forms added; detected with anti-LRG1 antibody and peroxidase-conjugated secondary antibody
[2] = target: LPHN2 ecto-full domain (human); test: as above
LPHN2 Lec = target: T1, LPHN2 Lec; test: ELISA
[3] = target: T2, LPHN2 olfactomedin-like (Olf) domain; test: ELISA
[4] = recombinant protein expression level; conditions: glycan lost; control: LRG1 WT

Binder | Kd [1] | expression_or_secretion [4] | other results
B1 | 920 nM | – | –
B2 | 450 nM | – | Kd [2]: 840 nM; Kd (LPHN2 Lec): 1100 nM; Kd [3]: 450 nM
B3 | – | no change | –
B4 | – | no change | –
B5 | – | no change | –
B6 | – | no change | –
